Results on one molecule are retold here after PMC5473137, “Structure of a SMG8–SMG9 complex identifies a G-domain heterodimer in the NMD effector proteins” (RNA, 2017).

The target of the assay is T1, C. elegans SMG8c (SMG8 residues 1-423) (C. elegans, UniProt O62301 1-423).
T1 construct: SMG8, C. elegans, full length 873 residues; core fragment residues 1-423 (G-like domain and stalk); Selenomethionine-substituted protein (about 60% incorporation) was used for phasing; native crystals were soaked with GDP; SMG8 was insoluble when expressed in isolation; also called C.e; SMG8 1-423; CeSMG8
T1 sequence (looked up): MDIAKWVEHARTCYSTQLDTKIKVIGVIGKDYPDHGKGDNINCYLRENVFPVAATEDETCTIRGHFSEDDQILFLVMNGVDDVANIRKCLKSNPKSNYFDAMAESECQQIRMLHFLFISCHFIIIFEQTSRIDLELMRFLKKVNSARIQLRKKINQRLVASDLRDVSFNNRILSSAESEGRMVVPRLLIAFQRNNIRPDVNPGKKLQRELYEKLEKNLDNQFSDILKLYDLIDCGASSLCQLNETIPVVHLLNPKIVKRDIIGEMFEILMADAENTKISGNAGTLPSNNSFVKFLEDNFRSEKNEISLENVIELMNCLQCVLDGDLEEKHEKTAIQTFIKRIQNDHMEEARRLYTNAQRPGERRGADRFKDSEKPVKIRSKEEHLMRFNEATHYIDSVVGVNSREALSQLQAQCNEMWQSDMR
Description: crystal structure; coexpressed and co-purified SMG8c-SMG9c core complex; vapor diffusion, 10% PEG3350, 0.1M Tris pH 8.5, 0.11 mM YCl3; SeMet crystals (2.5 Å) and native crystals soaked with 10 mM GDP (2.65 Å); three copies of the complex in the asymmetric unit. Particulars: both partners purified.

B1: C. elegans SMG9c (SMG9 residues 59-375) (domain or fragment, UniProt Q9XWJ1 59-375, looked up)
chain: MKESVRFLTDFGEISDAISDLLTSSPNFNVISAIGPQGAGKSTLLSMLAGNNSRQMYREYVFRPVSREANEQSRHQTIQIDIYIVNHQIFLDCQPMYSFSIMEGLPKVRGGRFDDSTAMSDTLRLTAFLLYVSHTVLVVSETHYDKVIIDTLRVAEQIRPYLAIFRPKLAIDRKTNLVFIKTKASSIDLAPTVIREREELLRLSFQDSRWLKVSQEPFKTLIVLEEIRVRREHLFEEGDEPDEAASLNEFDEQIAELREELQKNREDFTVETAAMDEKKWLDMCREVIRDKTLHKTLKEYQRAMTDGVRTHFDNGFH
notes: SMG9, C. elegans, full length 385 residues; core fragment residues 59-375 (G domain); Selenomethionine-substituted protein (about 60% incorporation) was used for phasing; native crystals were soaked with GDP; also called C.e; SMG9 59-375; CeSMG9c
B1: the binding result is on record as “binds”.
